Our source for the IC50 values is PMC2570342 (Cell, 2008).

What is called IC50 is the concentration needed to halve the response being measured.

For the experiment, the target named is actin filaments (F-actin) (UniProt P68135 1-377). Kind of experiment: co-sedimentation.

B1: Coronin 1B (recombinant) (natural protein)
chain: MSFRKVVRQSKFRHVFGQPVKNDQCYEDIRVSRVTWDSTFCAVNPKFLAVIVEASGGGAFLVLPLSKTGRIDKAYPTVCGHTGPVLDIDWCPHNDEVIASGSEDCTVMVWQIPENGLTSPLTEPVVVLEGHTKRVGIIAWHPTARNVLLSAGCDNVVLIWNVGTAEELYRLDSLHPDLIYNVSWNHNGSLFCSACKDKSVRIIDPRRGTLVAEREKAHEGARPMRAIFLADGKVFTTGFSRMSERQLALWDPENLEEPMALQELDSSNGALLPFYDPDTSVVYVCGKGDSSIRYFEITEEPPYIHFLNTFTSKEPQRGMGSMPKRGLEVSKCEIARFYKLHERKCEPIVMTVPRKSDLFQDDLYPDTAGPEAALEAEEWVSGRDADPILISLREAYVPSKQRDLKISRRNVLSDSRPAMAPGSSHLGAPASTTTAADATPSGSLARAGEAGKLEEVMQELRALRALVKEQGDRICRLEEQLGRMENGDA
In turn, B1 returned an IC50 of 74 nM.
